We go through one molecule from patent WO2000075333A1 (dated 2000).

As a reminder, the Kd is the constant that tells how readily two partners part at equilibrium. The low end stands for a tighter complex, the high end for a looser complex.

In this assay the target is T1, CD20 (human, UniProt P11836 1-297).
T1 construct: whole, on cells; also called CD20 antigen; CD20-positive Ramos cell line
T1 sequence (looked up): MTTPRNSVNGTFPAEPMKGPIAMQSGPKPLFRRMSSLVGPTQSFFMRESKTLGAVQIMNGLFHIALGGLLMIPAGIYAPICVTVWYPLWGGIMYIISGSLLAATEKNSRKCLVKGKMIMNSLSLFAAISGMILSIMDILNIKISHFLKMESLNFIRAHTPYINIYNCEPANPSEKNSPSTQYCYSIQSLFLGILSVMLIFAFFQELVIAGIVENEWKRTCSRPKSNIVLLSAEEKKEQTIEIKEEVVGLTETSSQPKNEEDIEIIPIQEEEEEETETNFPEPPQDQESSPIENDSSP
Description: saturation binding of radiolabeled mAb to Ramos cells (10^7 cells), nonlinear regression, concentrations adjusted for immunoreactivity.

B1: B9E9 mAb (antibody, V domains shown)
VH: QVQLVQSGAELVKPGASVKMSCKASGYTFTSYNMHWVKQTPGQGLEWIGAIYPGNGDTSYNQKFKGKATLTADKSSSTAYMQLSSLTSEDSAVYYCARAQLRPNYWYFDVWGAGTTVTVSS
VL: DIVLSQSPAILSASPGEKVTMTCRASSSVSYMHWYQQKPGSSPKPWIYATSNLASGVPARFSGSGSGTSYSLTISRVEAEDAATYYCQQWISNPPTFGAGTKLELK
Molecule B1 showed a Kd of 9.75 nM.
